Experimental data taken from PMC5458090, “Decoding NADPH oxidase 4 expression in human tumors” (Redox Biology, 2017).

Key:
endogenous human NOX4 = target: T1, endogenous human NOX4 (Homo sapiens (endogenous), UniProt Q9NPH5); assay: Western blot; whole-cell extracts (RIPA buffer) loaded without boiling on a 4-20% Tris glycine gel, transferred to nitrocellulose, incubated with primary antibody overnight; fibroblasts treated with TGF-β1, COV362 cells with NOX4 siRNA; details: one partner purified
T1 construct: NADPH oxidase 4 (NOX4), endogenous in human cell lines and human tissues; also called endogenous NOX4; NOX4 protein; source: endogenous: CCL-210 lung fibroblast and COV362 whole-cell extracts; COV362 and OVCAR3 membrane fractions; COV362 cells; formalin-fixed human tissues (BioMax TMA MC6163)

[1] = target: T2, MycDDK-HsNOX4 (human NADPH oxidase 4) (Homo sapiens, UniProt Q9NPH5); assay: as above; details: one partner purified
T2 construct: NADPH oxidase 4 (NOX4), human, from plasmid pCMV-MycDDK-HsNOX4; also called MycDDK-NOX4; source: HEK293, stably (clones WT1, WT2) or transiently transfected; in whole-cell extract or on/in cells; not shown: Myc, N-terminal, kept; DDK, N-terminal, kept
T2 sequence (Q9NPH5 whole entry): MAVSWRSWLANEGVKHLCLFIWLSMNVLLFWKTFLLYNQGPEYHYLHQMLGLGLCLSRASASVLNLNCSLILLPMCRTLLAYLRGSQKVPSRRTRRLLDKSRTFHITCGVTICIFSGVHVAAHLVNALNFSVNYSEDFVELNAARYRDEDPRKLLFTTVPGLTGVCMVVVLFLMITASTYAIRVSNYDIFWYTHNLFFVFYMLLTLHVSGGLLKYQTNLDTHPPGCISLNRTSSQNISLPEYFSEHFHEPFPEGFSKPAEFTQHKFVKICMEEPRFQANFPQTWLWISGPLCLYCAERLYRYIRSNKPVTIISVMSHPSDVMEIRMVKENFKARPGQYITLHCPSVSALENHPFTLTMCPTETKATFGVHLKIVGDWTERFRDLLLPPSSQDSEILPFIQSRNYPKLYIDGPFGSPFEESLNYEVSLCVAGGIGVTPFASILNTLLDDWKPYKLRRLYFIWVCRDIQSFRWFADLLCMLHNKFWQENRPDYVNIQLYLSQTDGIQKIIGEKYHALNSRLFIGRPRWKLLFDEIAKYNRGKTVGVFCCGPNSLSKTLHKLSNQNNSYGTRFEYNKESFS

T1 sequence (Q9NPH5 whole entry): as above

binding result (endogenous human NOX4): binds
binding result [1]: binds
B1: NOX4 rabbit monoclonal antibody 47-6 (antibody, V domains shown)
VH: QSVEESGGRLVTPGGSLTLTCTVSGIDLSSNSVTWVRQAPGEGLKWIGIISDSHRAYYATWAKGRFTISKTSSTTVDLKMTSLTTGDTATYFCVVGNNIWGPGTLVTVSS
VL: AQVLTQTASPVSAAVGGTVTINCQASESVYSDNRLSWFQQKPGQPPKLLIYYASTLASGVPSRVKGSGSGTQFTLTISDLECDDAATYYCAGGFSNNIYEFGGGTEVVVK
notes: Rabbit monoclonal raised against fixed NOX4-overexpressing HEK293 cells and a peptide of human NOX4 amino acids 209-282 (E-loop); also called mAb 47-6; 47-6 mAb
